Consider twelve molecules from patent publication US20220025008A1 (FAPON BIOTECH, published 2022).

T1: Recombinant NT antigen (N-terminal pro-brain natriuretic peptide, NT-proBNP) (human, UniProt P16860 27-102)
T1 construct: domain: N-terminal pro-brain natriuretic peptide (NT-proBNP); also called recombinant NT protein; N-terminal pro-B-type natriuretic peptide
T1 sequence (looked up): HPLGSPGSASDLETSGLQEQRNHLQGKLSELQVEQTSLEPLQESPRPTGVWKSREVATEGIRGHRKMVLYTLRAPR

B1: Mutation 1-33 (antibody)
heavy: QVRLQESGPSQVKPAQTLSLTCAISGFSVTTYYIDWVRHTPGKPPEWLAQMTKDGNAVHQPTLRSRLSITRDTSKSQVFLKLTGVTTEDTAVYYCVRGLIDFGPGLLVTVSSASTTPPKVYPLTSCCGDTSSSIVTLGCLVSSYMPEPVTVTWNSGALTSGVHTFPAILQSSGLYSLSSVVTVPASTSGAQTFICNVAHPASSTKVDKRVEPGCPDPCKHCRCPPPELPGGPSVFIFPPKPKDTLTISGTPEVTCVVVDVGQDDPEVQFSWFVDNVEVRTARTKPREEQFNSTFRVVSALPIQHQDWTGGKEFKCKVHNEGLPAPIVRTISRTKGQAREPQVYVLAPPQEELSKSTLSVTCLVTGFYPDYIAVEWQKNGQPESEDKYGTTTSQLDADGSYFLYSRLRVDKNSWQEGDTYACVVMHEALHNHYTQKSISKPPGK
light: QAVLTQPSSVSRSLGQTVSITCSGSSDQVGFGDYINWFQLIPGSAPKTLIFGAYSRIRGVPDRFSGSRSGNTATLTINSLQAEDEADYYCGSANSRGGYVFGSGTRLTVLSQPKSAPSVTLFPPSKEELDTNKATVVCLISDFYPGSVNVVWKADGSTINQNVKTTQASKQSNSKYAASSYLTLTGSEWKSKSSYTCEVTHEGSTVTKTVKPSECS
B2: Mutation 1-5 (antibody)
heavy: QVRLQESGPSQVKPAQTLSLTCAISGFSLTTYYVDWVRHTPGKPPEWLAQMTKDGNAVHNPTVRSRLSITRDTSKSQVFLKLTGVTTEDTAVYYCVRGVIDFGPGLLVTVSSASTTPPKVYPLTSCCGDTSSSIVTLGCLVSSYMPEPVTVTWNSGALTSGVHTFPAILQSSGLYSLSSVVTVPASTSGAQTFICNVAHPASSTKVDKRVEPGCPDPCKHCRCPPPELPGGPSVFIFPPKPKDTLTISGTPEVTCVVVDVGQDDPEVQFSWFVDNVEVRTARTKPREEQFNSTFRVVSALPIQHQDWTGGKEFKCKVHNEGLPAPIVRTISRTKGQAREPQVYVLAPPQEELSKSTLSVTCLVTGFYPDYIAVEWQKNGQPESEDKYGTTTSQLDADGSYFLYSRLRVDKNSWQEGDTYACVVMHEALHNHYTQKSISKPPGK
light: QAVLTQPSSVSRSLGQTVSITCSGSSDNVGFGDYINWFQLIPGSAPKTLIFGAYSRVRGVPDRFSGSRSGNTATLTINSLQAEDEADYYCGSGNSRNYVFGSGTRLTVLSQPKSAPSVTLFPPSKEELDTNKATVVCLISDFYPGSVNVVWKADGSTINQNVKTTQASKQSNSKYAASSYLTLTGSEWKSKSSYTCEVTHEGSTVTKTVKPSECS
B3: Mutation 1-11 (antibody)
heavy: QVRLQESGPSQVKPAQTLSLTCAISGFSITTYYVDWVRHTPGKPPEWLAQMTKDGNAVHQPTIRSRLSITRDTSKSQVFLKLTGVTTEDTAVYYCVRGVIDFGPGLLVTVSSASTTPPKVYPLTSCCGDTSSSIVTLGCLVSSYMPEPVTVTWNSGALTSGVHTFPAILQSSGLYSLSSVVTVPASTSGAQTFICNVAHPASSTKVDKRVEPGCPDPCKHCRCPPPELPGGPSVFIFPPKPKDTLTISGTPEVTCVVVDVGQDDPEVQFSWFVDNVEVRTARTKPREEQFNSTFRVVSALPIQHQDWTGGKEFKCKVHNEGLPAPIVRTISRTKGQAREPQVYVLAPPQEELSKSTLSVTCLVTGFYPDYIAVEWQKNGQPESEDKYGTTTSQLDADGSYFLYSRLRVDKNSWQEGDTYACVVMHEALHNHYTQKSISKPPGK
light: QAVLTQPSSVSRSLGQTVSITCSGSSDQVGFGDYVNWFQLIPGSAPKTLIFGASSRVRGVPDRFSGSRSGNTATLTINSLQAEDEADYYCGSPNSRGGYVFGSGTRLTVLSQPKSAPSVTLFPPSKEELDTNKATVVCLISDFYPGSVNVVWKADGSTINQNVKTTQASKQSNSKYAASSYLTLTGSEWKSKSSYTCEVTHEGSTVTKTVKPSECS
B4: Mutation 1-17 (antibody)
heavy: QVRLQESGPSQVKPAQTLSLTCAISGFSVTTYYVDWVRHTPGKPPEWLAQMTKDGNAVHNPTVRSRLSITRDTSKSQVFLKLTGVTTEDTAVYYCVRGVIDFGPGLLVTVSSASTTPPKVYPLTSCCGDTSSSIVTLGCLVSSYMPEPVTVTWNSGALTSGVHTFPAILQSSGLYSLSSVVTVPASTSGAQTFICNVAHPASSTKVDKRVEPGCPDPCKHCRCPPPELPGGPSVFIFPPKPKDTLTISGTPEVTCVVVDVGQDDPEVQFSWFVDNVEVRTARTKPREEQFNSTFRVVSALPIQHQDWTGGKEFKCKVHNEGLPAPIVRTISRTKGQAREPQVYVLAPPQEELSKSTLSVTCLVTGFYPDYIAVEWQKNGQPESEDKYGTTTSQLDADGSYFLYSRLRVDKNSWQEGDTYACVVMHEALHNHYTQKSISKPPGK
light: QAVLTQPSSVSRSLGQTVSITCSGSSDNVGFGDYINWFQLIPGSAPKTLIFGATSRVRGVPDRFSGSRSGNTATLTINSLQAEDEADYYCGSGNSRNYVFGSGTRLTVLSQPKSAPSVTLFPPSKEELDTNKATVVCLISDFYPGSVNVVWKADGSTINQNVKTTQASKQSNSKYAASSYLTLTGSEWKSKSSYTCEVTHEGSTVTKTVKPSECS
B5: Mutation 1-9 (antibody)
heavy: QVRLQESGPSQVKPAQTLSLTCAISGFSITTYYIDWVRHTPGKPPEWLAQMTKDGNAVHQPTLRSRLSITRDTSKSQVFLKLTGVTTEDTAVYYCVRGLIDFGPGLLVTVSSASTTPPKVYPLTSCCGDTSSSIVTLGCLVSSYMPEPVTVTWNSGALTSGVHTFPAILQSSGLYSLSSVVTVPASTSGAQTFICNVAHPASSTKVDKRVEPGCPDPCKHCRCPPPELPGGPSVFIFPPKPKDTLTISGTPEVTCVVVDVGQDDPEVQFSWFVDNVEVRTARTKPREEQFNSTFRVVSALPIQHQDWTGGKEFKCKVHNEGLPAPIVRTISRTKGQAREPQVYVLAPPQEELSKSTLSVTCLVTGFYPDYIAVEWQKNGQPESEDKYGTTTSQLDADGSYFLYSRLRVDKNSWQEGDTYACVVMHEALHNHYTQKSISKPPGK
light: QAVLTQPSSVSRSLGQTVSITCSGSSDQVGFGDYINWFQLIPGSAPKTLIFGASSRIRGVPDRFSGSRSGNTATLTINSLQAEDEADYYCGSANSRGGYVFGSGTRLTVLSQPKSAPSVTLFPPSKEELDTNKATVVCLISDFYPGSVNVVWKADGSTINQNVKTTQASKQSNSKYAASSYLTLTGSEWKSKSSYTCEVTHEGSTVTKTVKPSECS
B6: Mutation 1-52 (antibody, V domains shown)
VH: QVRLQESGPSQVKPAQTLSLTCAISGFSVTTYYLDWVRHTPGKPPEWLAQMTKDGNAVHQPTVRSRLSITRDTSKSQVFLKLTGVTTEDTAVYYCVRGVIDWGPGLLVTVSS
VL: QAVLTQPSSVSRSLGQTVSITCSGSSDNVGFGDYLNWFQLIPGSAPKTLIFGAYSRLRGVPDRFSGSRSGNTATLTINSLQAEDEADYYCGSGNSRGGYVFGSGTRLTVLS
B7: WT 1-4 (antibody)
heavy: QVRLQESGPSQVKPAQTLSLTCAISGPSVTTYYVDWVRHTPGKPPEWLAQMTKDANAVHQPTLRSRLSITRDTSKSQVFLKLTGVTTEDTAVYYCVKGVIDFGPGLLVTVSSASTTPPKVYPLTSCCGDTSSSIVTLGCLVSSYMPEPVTVTWNSGALTSGVHTFPAILQSSGLYSLSSVVTVPASTSGAQTFICNVAHPASSTKVDKRVEPGCPDPCKHCRCPPPELPGGPSVFIFPPKPKDTLTISGTPEVTCVVVDVGQDDPEVQFSWFVDNVEVRTARTKPREEQFNSTFRVVSALPIQHQDWTGGKEFKCKVHNEGLPAPIVRTISRTKGQAREPQVYVLAPPQEELSKSTLSVTCLVTGFYPDYIAVEWQKNGQPESEDKYGTTTSQLDADGSYFLYSRLRVDKNSWQEGDTYACVVMHEALHNHYTQKSISKPPGK
light: QAVLTQPSSVSRSLGQTVSITCSGSSDQVGPGDYVNWFQLIPGSAPKTLIFAATSRIRGVPDRFSGSRSGNTATLTINSLQAEDEADYYCGSGNSRGGYVWGSGTRLTVLSQPKSAPSVTLFPPSKEELDTNKATVVCLISDFYPGSVNVVWKADGSTINQNVKTTQASKQSNSKYAASSYLTLTGSEWKSKSSYTCEVTHEGSTVTKTVKPSECS
B8: Mutation 1-42 (antibody, V domains shown)
VH: QVRLQESGPSQVKPAQTLSLTCAISGFSVTTYYIDWVRHTPGKPPEWLAQMTKDGNAVHNPTVRSRLSITRDTSKSQVFLKLTGVTTEDTAVYYCVRGIIDWGPGLLVTVSS
VL: QAVLTQPSSVSRSLGQTVSITCSGSSDNVGFGDYINWFQLIPGSAPKTLIFGASSRIRGVPDRFSGSRSGNTATLTINSLQAEDEADYYCGSGNSRGGYVFGSGTRLTVLS
B9: WT 1-6 (antibody, V domains shown)
VH: QVRLQESGPSQVKPAQTLSLTCAISGPSITTYYVDWVRHTPGKPPEWLAQMTKDANAVHQPTIRSRLSITRDTSKSQVFLKLTGVTTEDTAVYYCVKGLIDWGPGLLVTVSS
V domain: QAVLTQPSSVSRSLGQTVSITCSGSSDQVGPGDYLNWFQLIPGSAPKTLIFAASSRLRGVPDRFSGSRSGNTATLTINSLQAEDEADYYCGSANSRGGYVWGSGTRLTVLS
B10: WT 1-7 (antibody, V domains shown)
VH: QVRLQESGPSQVKPAQTLSLTCAISGPSVTTYYLDWVRHTPGKPPEWLAQMTKDANAVHQPTVRSRLSITRDTSKSQVFLKLTGVTTEDTAVYYCVKGVIDWGPGLLVTVSS
V domain: QAVLTQPSSVSRSLGQTVSITCSGSSDNVGPGDYINWFQLIPGSAPKTLIFAAYSRLRGVPDRFSGSRSGNTATLTINSLQAEDEADYYCGSGNSRGGYVWGSGTRLTVLS
B11: Mutation 1-38 (antibody, V domains shown)
VH: QVRLQESGPSQVKPAQTLSLTCAISGFSITTYYVDWVRHTPGKPPEWLAQMTKDGNAVHQPTLRSRLSITRDTSKSQVFLKLTGVTTEDTAVYYCVRGLIDWGPGLLVTVSS
VL: QAVLTQPSSVSRSLGQTVSITCSGSSDQVGFGDYINWFQLIPGSAPKTLIFGATSRVRGVPDRFSGSRSGNTATLTINSLQAEDEADYYCGSGNSRGGYVFGSGTRLTVLS
B12: Mutation 1-6 (antibody, V domains shown)
VH: QVRLQESGPSQVKPAQTLSLTCAISGFSVTTYYIDWVRHTPGKPPEWLAQMTKDGNAVHNPTVRSRLSITRDTSKSQVFLKLTGVTTEDTAVYYCVRGIIDWGPGLLVTVSS
VL: QAVLTQPSSVSRSLGQTVSITCSGSSDNVGFGDYINWFQLIPGSAPKTLIFGASSRIRGVPDRFSGSRSGNTATLTINSLQAEDEADYYCGSPNSRNYVFGSGTRLTVLS

The target in the test is T1, Recombinant NT antigen (N-terminal …). Nature of the test: indirect ELISA, KD calculated from half-max OD at 4 coating concentrations. The procedure, abridged: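 Plates coated overnight at 4 °C with recombinant NT antigen at 3, 1.5, 0.75 or 0.375 μg/ml, blocked with 20% BSA. Antibody, 2-fold dilutions from 1000 to 0.977 ng/ml, was incubated 30 min at 37 °C, then detected with HRP anti-IgG, OD450/630. KD was derived from half-max OD across coating levels.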
With B1, the Kd was 2.6 nM. Take B2: the Kd is 6.1 nM.

Regarding B3, the Kd is 1.52 nM. As for B4, the Kd is 3.39 nM. As to B5, the Kd is 1.56 nM. Take B6: the Kd was 2.71 nM. Take B7: the Kd is 3.02 nM. Consider B8, for which the Kd is 2.22 nM. Then B9, with 6.14 nM. Consider B10, for which the Kd is 5.05 nM. As for B11, the Kd is 1.82 nM. In the case of B12, the Kd was 1.17 nM.

Broadly, the Kd is the concentration at which binding is half-saturated.
